From publication PMC10511788 (2023) come the findings set out here.

The target of this assay is M1-linked di-ubiquitin (UniProt P0CG48 1-76; P0CG48 1-76). The assay can be described thus: ITC. A general note: Isothermal titration calorimetry measures the heat released or taken up as one component is titrated into another.

B1: mouse HOIL-1L NZF domain (residues Pro192-Gln250) T207E (domain or fragment)
chain: GPLGSPEPVGWQCPGCTFINKPERPGCEMCCRARPETYQIPASYQPDEEERARLAGEEEALRQYQQ
For orientation: Kd means the free concentration of one partner at which half of the binding sites on the other are occupied at equilibrium, for simple one-to-one binding. Lower therefore signals tighter binding. Turning to B1, the Kd is 15.9 µM.
